Experimental data from paper PMC10746158 (mBio, 2023).

Molecular target: the molecule itself
Test: SEC; HiLoad 16/60 Superdex 200 pg; 150 mM NaCl, 50 mM Tris, 10 mM MgCl2, pH 8.0; monodisperse peak at ~60 kDa against 30.5 kDa for the monomer

B1: Sulfolobus acidocaldarius GPN-loop GTPase SaGPN (Saci_1281) (enzyme)
chain: YFIFVLGTAGSGKTTLVKALQDYLLNNELDTAIINLDPAVEVLPYKPDIDAREYVDVYDVMNKYELGPNSSLVISVDLLLTKAKELKEDLNQLQANYVLVDTPGQIELFAYRDTGKILSSFISEGSKSVSVFLFDSYLSKDPKSFLSLFLLSSSIKFRIDMPQISVLSKVDLLSSSELERMRSWIEDGSIIDELGSIDEYSFELVKTIVENLESFPIPVSSTNFSGLDQLYAEVQKVLAGGEDFETEEPNPRL
notes: SaGPN (Saci_1281), the solitary GPN-loop GTPase of Sulfolobus acidocaldarius, Uniprot Q4J9A7; residues Y2-A240 were built in both structures, 14 amino acids at the C-terminus are disordered; printed mass 30.5 kDa; Crystallised with GppNHp or GDP and Mg2+; source: E. coli BL21(DE3) Rosetta, purified (heat treatment, Ni-NTA, SEC); not shown: His10, N-terminal, kept
stoichiometry N: 2
